This experiment concerns the target bACE2-Rm fused with eGFP, expressed on the surface of HEK293T cells (Rhinolophus macrotis). The experiment in a line: flow cytometry on cells. On the technique in general: In flow cytometry, cells or beads pass a laser one at a time.

“SARS-CoV-2 spike protein receptor binding domain (RBD) (from UniProt P0DTC2 319-541) (domain or fragment)” returned a percent of cells stained positive of 34.5%.

Source of the values: paper PMC7817217.
